Data taken from the supplement of paper PMC10567573.
± gives the standard deviation.

Assay: protein stability index of a GFP-peptide fusion (GPS, HEK-293T) (PSI 1-6); higher = more stable
[1] = treatment: DMSO, c terminus: a fixed tail appended
[2] = treatment: MLN4924 1 uM, 8 h, c terminus: a fixed tail appended
[3] = treatment: DMSO, c terminus: native
[4] = treatment: MLN4924 1 uM, 8 h, c terminus: native
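Also: 24-mer peptide tiles fused after GFP, lentivirally expressed, FACS-sorted into six equal bins by GFP/DsRed ratio, decoded by Illumina sequencing, PSI is the read-weighted mean bin number.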

Sequence | protein stability index [1] | protein stability index [2] | protein stability index [3] | protein stability index [4]
PARAGSEVEWTEDLALDLGPQSRE [C2CD2L] | 5.24 ± 0.23 | 5.31 ± 0.23 | – | –
PASPNPFVHELHLSRLQRVKFCLL [LPCAT4] | 2.56 ± 0.6 | 2.51 ± 0.3 | – | –
PATHLSPALAPVPRNSCITCPQCH [TRIM9] | 3.82 ± 0.39 | 3.87 ± 0.23 | – | –
PDAETLKVMKQPRCGVPDVAQFVL [MMP1] | 2.4 ± 0.3 | 2.31 ± 0.27 | – | –
PDMSVTKVVVHKETEITPEDGED [EPB41L3] | – | – | 5.5 ± 0.35 | 5.57 ± 0.29
PDPTPPEPEEEILGSDDEEQEDPA [SRPK2] | 5.62 ± 0.33 | 5.53 ± 0.21 | – | –
PDTAPPSERPLEDLRLRLDHLGWV [RTN2] | 3.39 ± 0.44 | 3.24 ± 0.38 | – | –
PEADCIPKEQLSTSFQWVTKWVDY [PLK2] | 3.01 ± 0.34 | 2.8 ± 0.48 | – | –
PEGIQKVAKCLIGVNYPKPMVNHA [CRY1] | 2.46 ± 0.18 | 2.87 ± 0.23 | – | –
PEPPPVSFQPYHPLHFRGSNGMS [TENT5D] | – | – | 3.77 ± 0.29 | 3.91 ± 0.22
PETAHPNLVLSEDRKSVKFVETRL [TRIM39] | 4.04 ± 0.45 | 4.15 ± 0.16 | – | –
PFNGDCRITKDNRRHCQACRLKRC [VDR] | 3.19 ± 0.3 | 3.4 ± 0.34 | – | –
PFPAGPLAVAGGPRKTAAPVNALV [ESRRA] | 3.7 ± 0.34 | 3.61 ± 0.31 | – | –
PGARTRAGAARVARWRRLRLQQLR [FBXO33] | 4.12 ± 0.28 | 4.51 ± 0.26 | – | –
PGEVVPSGESGLRRRGSDPASGEV [TMEM40] | 5.52 ± 0.32 | 5.43 ± 0.23 | – | –
PGPKGDPGEKSHWGEGLHQLREAL [EMID1] | 3.32 ± 0.13 | 3.46 ± 0.52 | – | –
PGSQALPAPALAPDQLPQNNTLVA [FBXO28] | 4.74 ± 0.35 | 4.88 ± 0.37 | – | –
PHHHSFYDFIVTKARGKSGPLFNF [FAM50A] | 2.29 ± 0.29 | 2.22 ± 0.16 | – | –
PHMAEQTFEQAIQAASRIIRNEQF [CDC25B] | 3.1 ± 0.29 | 3.39 ± 0.17 | – | –
PICVQIPWDKNPEALAKWAEGRTG [CRY1] | 3.51 ± 0.35 | 3.6 ± 0.24 | – | –
PKAERLRWSPAQEESFRQMVVIHK [ZNF232] | 3.19 ± 0.31 | 3.25 ± 0.37 | – | –
PKGWRQLAQEAEAWLNYPCFKNWD [OAS1] | 2.72 ± 0.23 | 2.82 ± 0.18 | – | –

Sequence | protein stability index [1] | protein stability index [2] | protein stability index [3] | protein stability index [4]
PKPSVLFLHPDLGVGGAERLVLDA [ALG2] | 3.23 ± 0.29 | 3.15 ± 0.23 | – | –
PLAQNERCLHMFLQDEIIDKSYTP [SNX3] | 2.97 ± 0.24 | 3.39 ± 0.22 | – | –
PLCMAVLTTASIIQLGVTPPGYSA [SLC6A17] | 3.14 ± 0.94 | 2.94 ± 0.4 | – | –
PLFTPQSPVTATLSDEDDGFVDLL [CDC25A] | 4.65 ± 0.13 | 4.43 ± 0.38 | – | –
PLLPSDLRRTGCAALRIANCKLFR [GAN] | 2.29 ± 0.34 | 2.35 ± 0.24 | – | –
PLNCAPCPRRSEPVVQCQYPSGAE [IRX6] | 3.93 ± 0.14 | 3.94 ± 0.12 | – | –
PLPWSECPVVRNGSVAVVEAECEK [SLC6A17] | 5.443 ± 0.034 | 5.3 ± 0.29 | – | –
PLSAVYRICLGKFTFPGMSLDKRQ [TPRG1] | 2.23 ± 0.46 | 2.24 ± 0.22 | – | –
PLYLLTWKIAPAMAAGNTVIAKPS [ALDH8A1] | 2.04 ± 0.52 | 2.11 ± 0.4 | – | –
PNLTYVYPHTRIQSLVSILRTTVH [CLCN6] | 2.38 ± 0.51 | 2.23 ± 0.17 | – | –
PNVIDNFLCDLYPLLKLACTNTYV [OR4A15] | 2.87 ± 0.2 | 3.12 ± 0.29 | – | –
PPGNVYWPLRGKREAMLEMLLQHQ [SPAG8] | 2.52 ± 0.055 | 2.65 ± 0.3 | – | –
PQAFPMSRLWDSRLRHYLGSRYDA [DNAAF3] | 2.2 ± 0.47 | 2.51 ± 0.35 | – | –
PQEPRPPKRATKPKKAPKREKSAP [CPXM2] | 5.14 ± 0.46 | 5.42 ± 0.18 | – | –
PQKASAPAADPPRYTFAPSVSLNK [PDLIM7] | 4.33 ± 0.19 | 4.32 ± 0.22 | – | –
PQVFVSNKINAGMYILSPAVLRRI [GMPPB] | 2.21 ± 0.39 | 2.06 ± 0.26 | – | –
PRCPGSVNEKLPQREGTGKTVSLQ [SMOC2] | 5.03 ± 0.14 | 5.03 ± 0.54 | – | –
PRMNEVYTRLGEMNNAVRNLQELL [CEP70] | 3.78 ± 0.18 | 3.86 ± 0.23 | – | –
PSAELVQTRMAVSLTAAETLALQG [ZNF232] | 3.45 ± 0.35 | 3.23 ± 0.23 | – | –
PSLFHLNTLKRENSSPRVMQRKQS [DLC1] | 3.92 ± 0.16 | 4.2 ± 0.15 | – | –
PSPDMECADVPLLTPSSKEMMSQA [ETS1] | 5.15 ± 0.25 | 5.2 ± 0.11 | – | –
PSVFDGLGDLLMPTMAPAGQPAPV [SNAP91] | 3.54 ± 0.25 | 3.57 ± 0.2 | – | –

Sequence | protein stability index [1] | protein stability index [2] | protein stability index [3] | protein stability index [4]
PSVRSSKDGKLLAATLLLALLSCC [TNFSF13B] | 2.73 ± 0.66 | 2.81 ± 0.85 | – | –
PTEGAGSPAKASQASKLRASKEEK [FBF1] | 5.41 ± 0.21 | 5.43 ± 0.28 | – | –
PVAQSTDGIRGKVGHARGLHAWQI [SPSB4] | 2.68 ± 0.37 | 2.84 ± 0.29 | – | –
PVDLWACGVILYILLVGYPPFWDE [CAMK2A] | 3.08 ± 0.1 | 2.56 ± 0.096 | – | –
PVPAFQSDGTDEPESKEPVEKEEE [SMG5] | 5.57 ± 0.24 | 5.56 ± 0.24 | – | –
PVYRRDCHEEVYAGSHQYPGRGVY [ACBD3] | 2.89 ± 0.29 | 3.03 ± 0.2 | – | –
PWDESGSGCLPPEPLFEAGDATLA [FOXJ1] | 5.07 ± 0.39 | 5.08 ± 0.23 | – | –
PWSLFDVLVEKYGWPHEDAAQFTD [SRPK2] | 2.61 ± 0.28 | 2.88 ± 0.51 | – | –
PYDLHLRSQSLTMQDELNAVFHN [NEUROD6] | – | – | 3.44 ± 0.22 | 3.71 ± 0.15
PYGPPPDAVQTSLMDEGASSEKKR [RBBP5] | 5.37 ± 0.25 | 5.463 ± 0.047 | – | –
QAHGSEGLTFQGLLPLTELSVCPL [PLEKHN1] | 3.08 ± 0.29 | 3.05 ± 0.19 | – | –
QAIFHAVDQYLALPDVSLGRYAYV [MCOLN1] | 3.16 ± 0.59 | 2.68 ± 0.31 | – | –
QAKQEMNESRRQIQSLTCEVDGLR [PRPH] | 4.55 ± 0.37 | 4.78 ± 0.18 | – | –
QALLIRERILGPSHPDTSYYIRYR [FEM1A] | 2.31 ± 0.2 | 2.56 ± 0.33 | – | –
QCLDKTNESALVKEKELSIELANI [MTUS2] | 4.79 ± 0.27 | 4.77 ± 0.22 | – | –
QDIAQEISEAFSQRVGFGDDFDED [CHMP4C] | 5.62 ± 0.21 | 5.5 ± 0.18 | – | –
QDTEVFSWSDNERSSSRINIPERA [FAM104B] | 4.62 ± 0.094 | 4.53 ± 0.067 | – | –
QELLKRTIMQAVSQIRLNREHKET [TEKT4] | 2.63 ± 0.17 | 2.79 ± 0.36 | – | –
QFIANLDQLNDGQDFAKDLLKTLY [PSD2] | 2.21 ± 0.43 | 2.42 ± 0.28 | – | –
QFYMFGWTHVTLLIVVTQSHLVIH [CDS2] | 2.85 ± 0.37 | 3.31 ± 0.59 | – | –
QGDLASLRAELQGHHAEKLPAGAG [TNFSF13B] | 4.72 ± 0.2 | 4.76 ± 0.18 | – | –
